Article PMC5389570 (Nucleic Acids Research, 2017)

Target: heterotrimeric human RPA (RPA70, RPA32, RPA14) (human, UniProt P27694;P15927;P35244)
Assay: SPR

Sequence of heterotrimeric human RPA (RPA70, RPA32, RPA14) (P27694 whole entry, chain 1 of 3): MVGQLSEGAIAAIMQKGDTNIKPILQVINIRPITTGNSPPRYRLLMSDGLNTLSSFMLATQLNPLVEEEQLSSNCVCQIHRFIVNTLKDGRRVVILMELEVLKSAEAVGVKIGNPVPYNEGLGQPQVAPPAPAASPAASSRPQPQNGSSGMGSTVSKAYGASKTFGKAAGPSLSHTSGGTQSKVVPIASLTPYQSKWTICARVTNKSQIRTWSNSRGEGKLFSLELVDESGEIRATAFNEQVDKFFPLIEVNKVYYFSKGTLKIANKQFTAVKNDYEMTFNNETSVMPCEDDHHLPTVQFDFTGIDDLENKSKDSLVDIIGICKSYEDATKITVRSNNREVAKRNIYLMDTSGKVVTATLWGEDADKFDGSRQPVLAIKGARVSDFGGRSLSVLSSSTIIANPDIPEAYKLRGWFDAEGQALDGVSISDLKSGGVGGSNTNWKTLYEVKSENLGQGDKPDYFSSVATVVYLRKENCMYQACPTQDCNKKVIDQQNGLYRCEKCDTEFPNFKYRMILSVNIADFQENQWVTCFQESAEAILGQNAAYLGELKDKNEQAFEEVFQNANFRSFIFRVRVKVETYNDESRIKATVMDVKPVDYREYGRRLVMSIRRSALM
Sequence of heterotrimeric human RPA (RPA70, RPA32, RPA14) (P15927 whole entry, chain 2 of 3): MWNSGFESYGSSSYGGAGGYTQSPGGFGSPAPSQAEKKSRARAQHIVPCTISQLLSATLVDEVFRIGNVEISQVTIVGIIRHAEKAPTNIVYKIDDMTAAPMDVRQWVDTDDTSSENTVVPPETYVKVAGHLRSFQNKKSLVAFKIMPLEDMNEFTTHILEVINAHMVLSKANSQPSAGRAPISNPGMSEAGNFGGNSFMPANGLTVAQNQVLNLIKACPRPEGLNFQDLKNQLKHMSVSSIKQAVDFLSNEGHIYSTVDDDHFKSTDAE
Sequence of heterotrimeric human RPA (RPA70, RPA32, RPA14) (P35244 whole entry, chain 3 of 3): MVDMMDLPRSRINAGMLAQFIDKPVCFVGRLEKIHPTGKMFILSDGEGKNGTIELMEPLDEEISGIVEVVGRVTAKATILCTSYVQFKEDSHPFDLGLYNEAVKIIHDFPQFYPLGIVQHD

Kd: 0.115 µM
B1: human Cdc45 (cell division cycle protein 45), recombinant, C-terminal His6 tag (natural protein)
chain: MFVSDFRKEFYEVVQSQRVLLFVASDVDALCACKILQALFQCDHVQYTLVPVSGWQELETAFLEHKEQFHYFILINCGANVDLLDILQPDEDTIFFVCDTHRPVNVVNVYNDTQIKLLIKQDDDLEVPAYEDIFRDEEEDEEHSGNDSDGSEPSEKRTRLEEEIVEQTMRRRQRREWEARRRDILFDYEQYEYHGTSSAMVMFELAWMLSKDLNDMLWWAIVGLTDQWVQDKITQMKYVTDVGVLQRHVSRHNHRNEDEENTLSVDCTRISFEYDLRLVLYQHWSLHDSLCNTSYTAARFKLWSVHGQKRLQEFLADMGLPLKQVKQKFQAMDISLKENLREMIEESANKFGMKDMRVQTFSIHFGFKHKFLASDVVFATMSLMESPEKDGSGTDHFIQALDSLSRSNLDKLYHGLELAKKQLRATQQTIASCLCTNLVISQGPFLYCSLMEGTPDVMLFSRPASLSLLSKHLLKSFVCSTKNRRCKLLPLVMAAPLSMEHGTVTVVGIPPETDSSDRKNFFGRAFEKAAESTSSRMLHNHFDLSVIELKAEDRSKFLDALISLLS
